± gives the uncertainty stated by the source.

To fix the notation:
B1: Transitional endoplasmic reticulum ATPase, residues 26 to 106; numbered along this chain, P55072 (parent)
chain: LIVDEAINEDNSVVSLSQPKMDELQLFRGDTVLLKGKKRREAVCIVLSDDTCSDEKIRMNRVVRNNLRVRLGDVISIQPCP

In this data set the parent is B1. Briefly: abundance fitness (aPCA) (normalised: wild type 0, dead -1); higher = more abundant; growth selection in yeast, the domain comes from the species named. The following applies: Homo sapiens.
Turning to N8G, the abundance fitness was 0.022 ± 0.037.
For the variant L71P, the abundance fitness was -0.083 ± 0.061.
The same measure for E23R: -0.09 ± 0.064; for E23W: -0.338 ± 0.12; for D10Q: -0.072 ± 0.072.
The value for D10A was -0.059 ± 0.041; that for D10K was -0.007 ± 0.11; that for Q25G was -0.045 ± 0.05.
For the variant R39W, the abundance fitness is -0.08 ± 0.094.
The value for R39I was -0.082 ± 0.17; that for T31S was -0.028 ± 0.051.
Regarding T31P, the abundance fitness was -0.204 ± 0.076.
With L67C, the abundance fitness is -0.175 ± 0.084.
With L67I, the abundance fitness is -0.057 ± 0.083.
For the variant M21C, the abundance fitness is -0.435 ± 0.12.
Consider K37T, for which the abundance fitness is -0.072 ± 0.21.
The same measure for K37C: -0.226 ± 0.1; for R70V: -0.076 ± 0.064.
Take L47Q: the abundance fitness is -0.015 ± 0.088.
As for L47S, the abundance fitness is -0.068 ± 0.061.
The same measure for D30K: -0.257 ± 0.093; for K38E: -0.09 ± 0.11.
In the case of K38Y, the abundance fitness was -0.088 ± 0.14.
With R28G, the abundance fitness was -0.027 ± 0.052.
On to G36D, for which the abundance fitness is -0.262 ± 0.093.
With L26C, the abundance fitness was -0.346 ± 0.1.
On to L26E, for which the abundance fitness is -1.02 ± 0.24.
Consider S17L, for which the abundance fitness is -0.854 ± 0.11.
In the case of S17C, the abundance fitness was -0.381 ± 0.11.
With S17H, the abundance fitness is -0.396 ± 0.38.
With S17P, the abundance fitness is -0.365 ± 0.069.
For the variant D50L, the abundance fitness is -0.146 ± 0.058.
Take D50I: the abundance fitness is -0.059 ± 0.1.
As to K35D, the abundance fitness was -0.455 ± 0.18.
The value for E9D was 0.041 ± 0.091; that for E9C was 0.045 ± 0.069.
Regarding E9Y, the abundance fitness is -0.129 ± 0.13.
The same measure for V3F: -0.797 ± 0.21; for P19S: 0.051 ± 0.059.
As for P19M, the abundance fitness was 0.015 ± 0.14.
On to P19G, for which the abundance fitness stood at 0.063 ± 0.045.
The value for I45W was -0.176 ± 0.086; that for I45R was 0.054 ± 0.055; that for I45C was 0.008 ± 0.063.
The same measure for I75M: -0.2 ± 0.11.
With I75G, the abundance fitness was -0.944 ± 0.19.
The value for V32I was -0.016 ± 0.07; that for V32Q was -0.785 ± 0.18; that for G72D was -0.187 ± 0.15.
For the variant G72Y, the abundance fitness was -0.256 ± 0.23.
For the variant D22N, the abundance fitness is -0.036 ± 0.069.
Take V43R: the abundance fitness was found to be 0.07 ± 0.053.
Regarding L24H, the abundance fitness is -0.366 ± 0.21.
Consider D54K, for which the abundance fitness worked out at 0.08 ± 0.085.
The same measure for D54E: -0.062 ± 0.079; for D54P: -0.116 ± 0.072.
With S53C, the abundance fitness was -0.042 ± 0.081.
Regarding S53L, the abundance fitness is -0.026 ± 0.065.
Regarding S53D, the abundance fitness stood at 0.021 ± 0.14.
With S53I, the abundance fitness was -0.204 ± 0.13.
For S53G, the abundance fitness is -0.019 ± 0.048.
For the variant S53H, the abundance fitness was -0.102 ± 0.12.
The value for S53N was 0.044 ± 0.15.
Turning to E41G, the abundance fitness was -0.269 ± 0.061.
Turning to E41N, the abundance fitness is -0.383 ± 0.2.
Regarding V13E, the abundance fitness is -0.127 ± 0.066.
The same measure for V13Y: 0.044 ± 0.084.
In the case of V13W, the abundance fitness is -0.006 ± 0.053.
V13R: the abundance fitness is -0.113 ± 0.046.
V13A: the abundance fitness was -0.125 ± 0.043.
As to V13I, the abundance fitness came to 0.053 ± 0.11.
For the variant C80P, the abundance fitness was -0.048 ± 0.3.
The value for C80G was 0.056 ± 0.039.
In the case of C80F, the abundance fitness is -0.067 ± 0.054.
N11S: the abundance fitness was 0.039 ± 0.051.
The same measure for N11A: -0.105 ± 0.048; for I2S: -0.196 ± 0.065; for R40H: -0.139 ± 0.11.
The value for R40F was -0.006 ± 0.13; that for R40M was -0.077 ± 0.12; that for E5T was -0.1 ± 0.058.
Regarding V69I, the abundance fitness is -0.022 ± 0.079.
As to G29S, the abundance fitness is -0.109 ± 0.062.
In the case of G29H, the abundance fitness is 0.059 ± 0.17.
As for G29L, the abundance fitness is -0.209 ± 0.061.
The same measure for N60M: -0.552 ± 0.16.
For the variant N60I, the abundance fitness is -0.681 ± 0.32.
Regarding R61F, the abundance fitness was -0.158 ± 0.14.
Take R61W: the abundance fitness is -0.119 ± 0.079.
As for R61V, the abundance fitness was -0.005 ± 0.059.
As to S76I, the abundance fitness is -0.173 ± 0.13.
The same measure for D4E: -0.015 ± 0.095.
The same measure for D4V: -0.082 ± 0.048.

The values are drawn from the Human Domainome abundance scans (Beltran et al. 2025).
